Source: patent publication US20240352069A1, “SYNTHETIC PEPTIDE, AND COSMETIC COMPOSITION OR PHARMACEUTICAL COMPOSITION AND APPLICATION THEREOF” (SHENZHEN WINKEY TECHNOLOGY CO., LTD., priority 2021, published 2024)

Experiments:
IL-6 = experiment: Anti-inflammatory repair experiment, LPS-stimulated RAW264.7 cells, ELISA IL-6; format: cell-based, mouse; settings: 100 ppm, 200 ng/mL LPS, 48 h, vs LPS group
Description: (§1) Mouse mononuclear macrophages (RAW264.7 cells).
(§2) Peptide (2), tested at a concentration of 100 ppm.
(§3) • a) Take RAW264.7 cells in good exponential growth phase, add 0.25% trypsin digestion solution, digest to make adherent cells fall off, count 1-4×10^6 cells/mL, and make cell suspension; • b) Appropriately dilute 100,000 cells/well of cell suspension and inoculate it on a 6-well plate, and establish an LPS-stimulated inflammation model when the cells reached about 80% confluent. Set blank control group (control), LPS group, dexamethasone group (DXM), polypeptide group. Add 1000 μL culture medium to the blank control group; add 200 ng/mL LPS to the LPS group, add culture medium to 1000 μL; add 200 ng/mL LPS and 50 ng/mL dexamethasone to the dexamethasone group, add culture medium to 1000 μL; add 200 ng/mL LPS and peptide (2) to the polypeptide group, add culture medium to 1000 μL (final test concentration of peptide is 100 ppm). […] The OD value of each well was sequentially measured at 450 nm with a microplate reader within 15 min after the reaction was terminated. […]

[1] = Stability of powders at 25° C. and 40° C. (HPLC purity over time)
Description: (§4) In Example 29, the HPLC chromatographic separation conditions were as follows: • Chromatographic column: Octadecyl bonded silica gel as filler 4.6*250 mm, 5 m • Mobile phase A: Acetonitrile (containing 0.09% trifluoroacetic acid) • Mobile phase B: 0.1% trifluoroacetic acid • Diluent: water • Flow rate: 1.0 ml/min; • Column temperature: 35° C.; • Detection wavelength: 215 nm; • Injection volume: 10 μl; • Running time: 32 min • Gradient elution table:
(§5) The test solution: Take an appropriate amount of this product and add water to dissolve and dilute to make a solution containing 1 mg per 1 ml.

TNF-α = experiment: Anti-inflammatory repair experiment, LPS-stimulated RAW264.7 cells, ELISA TNF-α; format: cell-based, mouse
Description: as §1, §2, §3

HaCaT cells [2] = experiment: Promoting cell adhesion test (MTT after three-dimensional force); format: cell-based, human; settings: 12.5, 25, 50, 100 ppm coated plate, vs normal control group
Description: Human keratinocytes (HaCaT) were purchased from the Kunming Cell Bank of the Type Culture Collection Committee of the Chinese Academy of Sciences.
Dissolve with PBS solution.
The cryopreserved HaCaT human cuticle cells were cultured, subcultured at a ratio of 1:2 to about 5 passages, and the cells with better growth were selected as the experimental objects.
The sample to be tested was added to a 96-well plate at a rate of 20 μL/well, and dried overnight in a constant temperature oven at 37° C. […] Set the detection wavelength to 490 nm, the reference wavelength to 630 nm, and use a microplate reader to read the OD value.
By selecting HaCaT cells, plate them in a drug-coated 96-well plate, and after incubation and a period of three-dimensional force, the cells with strong adhesion can be maintained on the 96-well plate. By performing MTT quantitative analysis on the live cells on the plate, that is, the effect of the drug on cell adhesion can be evaluated to determine whether the peptide of the present invention can improve cell elasticity. After three-dimensional force action, the more living cells remained on the 96-well plate, the greater the measured OD value, indicating the stronger the adhesion of the cells.

[3] = Stability of aqueous solutions (HPLC purity over time); format: physicochemical
Description: as §4, §5

HaCaT cells [4] = experiment: Cell proliferation experiment (MTT), HaCaT; format: cell-based, human; settings: 24 hours
Description: Human keratinocytes (HaCaT) were purchased from the Kunming Cell Bank of the Type Culture Collection Committee of the Chinese Academy of Sciences, and mouse skin fibroblasts (NIH3T3) were purchased from the Shanghai Cell Bank of the Type Culture Collection Committee of the Chinese Academy of Sciences.
• a) Take cells in good condition in exponential growth phase, add 0.25% trypsin digestion solution, digest to make adherent cells fall off, count 1-4×10^5 cells/mL, and make cell suspension; • b) Appropriately dilute 2000 cells/well of the cell suspension and inoculate it on a 96-well plate at 200 μL/well, and culture it in a constant temperature CO2 incubator for 24 hours. • c) Change the medium, add the sample to be tested, 20 μL/well, and incubate for 24 hours; • d) Add the MTT reagent into the 96-well plate, 20 μL/well, and react in the incubator for 4 hours; • e) Aspirate the supernatant, add DMSO, 150 μL/well, and shake on a plate shaker for 5 minutes; • f) After 5 minutes, use a microplate reader to read the reference OD values at 490 nm and 630 nm wavelengths, and calculate the cell viability:
MTT method is a method to detect cell survival and growth. The measured OD value is directly proportional to cell activity. The larger the OD value, the higher the cell activity.

## H-Ala-Pro-Phe-Arg-Met-Gly-Ile-Met-Thr-Thr-Asn-OH (H-APFRMGIMTTN-OH) [Peptide (2)]
IL-6
  expression of IL-6: significantly down-regulated
[1]; 25° C., Day 20
  powder (purity): 99.146%
[1]; 40° C., Day 20, listed as Peptide(2)
  powder (purity): 98.583%
[1]; 40° C., Day 20, listed as peptide (2)
  powder (purity): remained unchanged
[1]; powder, Day 0
  powder (purity): 99.291%
TNF-α; 100 ppm vs 50 ng/mL dexamethasone, TNF-α, IL-6 and IL-8
  anti-inflammatory effect compared with dexamethasone: equivalent to the positive drug dexamethasone
TNF-α; 100 ppm, 200 ng/mL LPS, 48 h, vs LPS group
  expression of TNF-α: significantly down-regulated
HaCaT cells [2]
  adhesion ability of HaCaT cells: could improve the adhesion ability of HaCaT cells
[3]; Day 8 at room temperature
  aqueous solution (purity): 99.122%
[3]; Day 18 at room temperature
  aqueous solution (purity): 98.045%
[3]; Day 18 at room temperature, listed as peptide (2)
  aqueous solution (purity): did not change significantly
[3]; Solution, Day 0
  aqueous solution (purity): 99.291%
HaCaT cells [4]; 12.5-100 ppm
  impact on the activity of HaCaT cells compared among peptides (1)-(5): greater impact on the activity of HaCaT cells
HaCaT cells [4]; 12.5 ppm-100 ppm, vs PBS blank control
  effect on the activity of HaCaT cells (MTT): could both improve the activity of HaCaT cells, promote their proliferation
